Source: article PMC6668613 (Nature plants, 2019)
Read-outs that look alike come from different tables or passages of the source. Ends that are not written are not given here.

T1: GST-MPK3 (Arabidopsis thaliana, UniProt Q39023 1-370)
T1 sequence (looked up): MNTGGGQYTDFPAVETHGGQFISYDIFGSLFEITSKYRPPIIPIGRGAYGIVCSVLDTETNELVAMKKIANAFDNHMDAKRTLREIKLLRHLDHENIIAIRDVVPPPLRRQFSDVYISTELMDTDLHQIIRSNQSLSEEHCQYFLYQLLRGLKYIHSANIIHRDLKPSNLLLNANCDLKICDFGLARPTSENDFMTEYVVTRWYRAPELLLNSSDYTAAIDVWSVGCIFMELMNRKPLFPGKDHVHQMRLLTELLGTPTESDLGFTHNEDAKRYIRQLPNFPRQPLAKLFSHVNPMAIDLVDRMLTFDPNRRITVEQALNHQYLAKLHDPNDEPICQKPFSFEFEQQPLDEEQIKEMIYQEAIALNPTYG


Tests used:
Test in all cases: BLI
GST-MPK3 = target: T1, GST-MPK3
GST-MPK6 [1] = target: T2, GST-MPK6 (Arabidopsis thaliana, UniProt Q39026 1-395)
T2 sequence (Q39026 whole entry): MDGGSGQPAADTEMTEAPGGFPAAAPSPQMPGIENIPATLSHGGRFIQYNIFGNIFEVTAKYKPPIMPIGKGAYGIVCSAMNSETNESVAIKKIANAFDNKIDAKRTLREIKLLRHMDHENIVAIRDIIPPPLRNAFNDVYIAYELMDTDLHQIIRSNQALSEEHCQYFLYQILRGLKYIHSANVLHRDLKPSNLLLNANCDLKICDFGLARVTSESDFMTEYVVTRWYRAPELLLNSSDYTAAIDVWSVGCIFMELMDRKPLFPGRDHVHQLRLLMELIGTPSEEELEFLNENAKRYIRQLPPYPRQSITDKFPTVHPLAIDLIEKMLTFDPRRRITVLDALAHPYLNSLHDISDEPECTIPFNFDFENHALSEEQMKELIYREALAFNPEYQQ

GST-MPK6 [2] = target: T2, GST-MPK6; remark: listed apart in the source

| Kd (GST-MPK3) [nM] | Kd (GST-MPK6 [1]) [nM] | Kd (GST-MPK6 [2]) [nM] | Binder |
| --- | --- | --- | --- |
| 2800 ± 700 | 2400 ± 400 |  | ASSGAQPTLFQKRAAMRQ (also: biotinylated, position not given here) [KRAAM motif peptide, biotinylated] |
|  | 2300 ± 500 |  | GGFVGNRAKVLKPLEVL (also: biotinylated, position not given here) [Docking motif peptide, biotinylated] |
|  |  | 47 ± 6 | GGFVGNRAKVLKPLEVLASSGAQPTLFQKRAAMRQ (also: biotinylated, position not given here) [SCRM KiDoK full-length peptide, biotinylated] |
